According to IntAct's records for PubMed 17632125:

B1: Ubiquitin carboxyl-terminal hydrolase 3 (Saccharomyces cerevisiae), Q01477 (parent)
chain: MNMQDANKEESYSMYPKTSSPPPPTPTNMQIPIYQAPLQMYGYTQAPYLYPTQIPAYSFNMVNQNQPIYHQSGSPHHLPPQNNINGGSTTNNNNINKKKWHSNGITNNNGSSGNQGANSSGSGMSYNKSHTYHHNYSNNHIPMMASPNSGSNAGMKKQTNSSNGNGSSATSPSYSSYNSSSQYDLYKFDVTKLKNLKENSSNLIQLPLFINTTEAEFAAASVQRYELNMKALNLNSESLENSSVEKSSAHHHTKSHSIPKHNEEVKTETHGEEEDAHDKKPHASKDAHELKKKTEVKKEDAKQDRNEKVIQEPQATVLPVVDKKEPEESVEENTSKTSSPSPSPPAAKSWSAIASDAIKSRQASNKTVSGSMVTKTPISGTTAGVSSTNMAAATIGKSSSPLLSKQPQKKDKKYVPPSTKGIEPLGSIALRMCFDPDFISYVLRNKDVENKIPVHSIIPRGIINRANICFMSSVLQVLLYCKPFIDVINVLSTRNTNSRVGTSSCKLLDACLTMYKQFDKETYEKKFLENADDAEKTTESDAKKSSKSKSFQHCATADAVKPDEFYKTLSTIPKFKDLQWGHQEDAEEFLTHLLDQLHEELISAIDGLTDNEIQNMLQSINDEQLKVFFIRNLSRYGKAEFIKNASPRLKELIEKYGVINDDSTEENGWHEVSGSSKRGKKTKTAAKRTVEIVPSPISKLFGGQFRSVLDIPNNKESQSITLDPFQTIQLDISDAGVNDLETAFKKFSEYELLPFKSSSGNDVEAKKQTFIDKLPQVLLIQFKRFSFINNVNKDNAMTNYNAYNGRIEKIRKKIKYGHELIIPEESMSSITLKNNTSGIDDRRYKLTGVIYHHGVSSDGGHYTADVYHSEHNKWYRIDDVNITELEDDDVLKGGEEASDSRTAYILMYQKRN
partner: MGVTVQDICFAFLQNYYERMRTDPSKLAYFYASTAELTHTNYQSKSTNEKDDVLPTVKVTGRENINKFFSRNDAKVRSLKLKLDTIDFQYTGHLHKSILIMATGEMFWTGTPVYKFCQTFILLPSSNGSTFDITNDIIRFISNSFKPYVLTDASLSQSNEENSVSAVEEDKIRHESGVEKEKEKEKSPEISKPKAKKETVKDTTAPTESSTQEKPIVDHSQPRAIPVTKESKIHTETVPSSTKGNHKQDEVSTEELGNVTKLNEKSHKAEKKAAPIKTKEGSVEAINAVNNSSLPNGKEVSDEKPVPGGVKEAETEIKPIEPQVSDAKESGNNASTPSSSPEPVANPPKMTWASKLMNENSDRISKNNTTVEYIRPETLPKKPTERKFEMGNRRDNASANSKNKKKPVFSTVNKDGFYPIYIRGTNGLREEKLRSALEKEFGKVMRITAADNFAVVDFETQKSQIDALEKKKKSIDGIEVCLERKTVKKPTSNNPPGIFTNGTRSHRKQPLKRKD
B2: UBP3-associated protein BRE5 (Saccharomyces cerevisiae), P53741 (parent)
chain: B1 partner
partner: B1 chain

Variants of: B1
Settings: with bre5_yeast BRE5, P53741

| Variant | effect of a mutation on the interaction |
| --- | --- |
| I210A;F217A | decreasing interaction strength |
| L208A;F209A;I210A;N211A | decreasing interaction strength |
| N211A | decreasing interaction strength |
| L208A;F209A | decreasing interaction strength |
| E216A | with no effect |
| L208A | with no effect |
| R224A | with no effect |
| F217A | with no effect |
| L208A;F209A;I210A;N211A;F217A | disrupting interaction strength |
| N211A;F217A | decreasing interaction strength |
| T212A | with no effect |
| F209A | with no effect |
| E214A | with no effect |
| I210A | decreasing interaction strength |

Variants of: B2
Settings: with ubp3_yeast UBP3, Q01477

| Variant | effect of a mutation on the interaction |
| --- | --- |
| MGVTVQDICFAFLQNYYERMRTDPSKLAYFYASTAELTHTNYQSKSTNEKDDVLPTVKVTGRENINKFFSRNDAKVRSLKLKLDTIDFQYTGHLHKSILIMATGAMFWTGTPVYKFCQTFILLPSSNGSTFDITNDIIRFISNSFKPYVLTDASLSQSNEENSVSAVEEDKIRHESGVEKEKEKEKSPEISKPKAKKETVKDTTAPTESSTQEKPIVDHSQPRAIPVTKESKIHTETVPSSTKGNHKQDEVSTEELGNVTKLNEKSHKAEKKAAPIKTKEGSVEAINAVNNSSLPNGKEVSDEKPVPGGVKEAETEIKPIEPQVSDAKESGNNASTPSSSPEPVANPPKMTWASKLMNENSDRISKNNTTVEYIRPETLPKKPTERKFEMGNRRDNASANSKNKKKPVFSTVNKDGFYPIYIRGTNGLREEKLRSALEKEFGKVMRITAADNFAVVDFETQKSQIDALEKKKKSIDGIEVCLERKTVKKPTSNNPPGIFTNGTRSHRKQPLKRKD [E105A] | with no effect |
| MGVTVQDICFAFLQNYYERMRTDPSKLAYFYASTAELTHTNYQSKSTNEKDDVLPTVKVTGRENINKFFSRNDAKVRSLKLALDTIDFQYTGHLHKSILIMATGEMFWTGTPVYKFCQTFILLPSSNGSTFDITNDIIRFISNSFKPYVLTDASLSQSNEENSVSAVEEDKIRHESGVEKEKEKEKSPEISKPKAKKETVKDTTAPTESSTQEKPIVDHSQPRAIPVTKESKIHTETVPSSTKGNHKQDEVSTEELGNVTKLNEKSHKAEKKAAPIKTKEGSVEAINAVNNSSLPNGKEVSDEKPVPGGVKEAETEIKPIEPQVSDAKESGNNASTPSSSPEPVANPPKMTWASKLMNENSDRISKNNTTVEYIRPETLPKKPTERKFEMGNRRDNASANSKNKKKPVFSTVNKDGFYPIYIRGTNGLREEKLRSALEKEFGKVMRITAADNFAVVDFETQKSQIDALEKKKKSIDGIEVCLERKTVKKPTSNNPPGIFTNGTRSHRKQPLKRKD [K82A] | with no effect |
| MGVTVQDICFAFLQNYAERMRTDPSKLAYFYASTAELTHTNYQSKSTNEKDDVLPTVKVTGRENINKFFSRNDAKVRSLKLKLDTIDFQYTGHLHKSILIMATGEMFWTGTPVYKFCQTFILLPSSNGSTFDITNDIIRFISNSFKPYVLTDASLSQSNEENSVSAVEEDKIRHESGVEKEKEKEKSPEISKPKAKKETVKDTTAPTESSTQEKPIVDHSQPRAIPVTKESKIHTETVPSSTKGNHKQDEVSTEELGNVTKLNEKSHKAEKKAAPIKTKEGSVEAINAVNNSSLPNGKEVSDEKPVPGGVKEAETEIKPIEPQVSDAKESGNNASTPSSSPEPVANPPKMTWASKLMNENSDRISKNNTTVEYIRPETLPKKPTERKFEMGNRRDNASANSKNKKKPVFSTVNKDGFYPIYIRGTNGLREEKLRSALEKEFGKVMRITAADNFAVVDFETQKSQIDALEKKKKSIDGIEVCLERKTVKKPTSNNPPGIFTNGTRSHRKQPLKRKD [Y17A] | with no effect |
| MGVTVQDICFAFLQNYYERMRTDPSKLAYFYASTAELTHTNYQSKSTNEKDDVLPTVKVTGRENINKFFSRNDAKVRSLALKLDTIDFQYTGHLHKSILIMATGEMFWTGTPVYKFCQTFILLPSSNGSTFDITNDIIRFISNSFKPYVLTDASLSQSNEENSVSAVEEDKIRHESGVEKEKEKEKSPEISKPKAKKETVKDTTAPTESSTQEKPIVDHSQPRAIPVTKESKIHTETVPSSTKGNHKQDEVSTEELGNVTKLNEKSHKAEKKAAPIKTKEGSVEAINAVNNSSLPNGKEVSDEKPVPGGVKEAETEIKPIEPQVSDAKESGNNASTPSSSPEPVANPPKMTWASKLMNENSDRISKNNTTVEYIRPETLPKKPTERKFEMGNRRDNASANSKNKKKPVFSTVNKDGFYPIYIRGTNGLREEKLRSALEKEFGKVMRITAADNFAVVDFETQKSQIDALEKKKKSIDGIEVCLERKTVKKPTSNNPPGIFTNGTRSHRKQPLKRKD [K80A] | with no effect |

Variants of: B2
Settings: with ubp3_yeast UBP3, Q01477
Remark: another data set of the same source

| Variant | effect of a mutation on the interaction |
| --- | --- |
| MGVTVQDICFAFLQNYAERMRTDPSKLAYFYASTAELTHTNYQSKSTNEKDDVLPTVKVTGRENINKFFSRNDAKVRSLKLALDTIDFQYTGHLHKSILIMATGEMFWTGTPVYKFCQTFILLPSSNGSTFDITNDIIRFISNSFKPYVLTDASLSQSNEENSVSAVEEDKIRHESGVEKEKEKEKSPEISKPKAKKETVKDTTAPTESSTQEKPIVDHSQPRAIPVTKESKIHTETVPSSTKGNHKQDEVSTEELGNVTKLNEKSHKAEKKAAPIKTKEGSVEAINAVNNSSLPNGKEVSDEKPVPGGVKEAETEIKPIEPQVSDAKESGNNASTPSSSPEPVANPPKMTWASKLMNENSDRISKNNTTVEYIRPETLPKKPTERKFEMGNRRDNASANSKNKKKPVFSTVNKDGFYPIYIRGTNGLREEKLRSALEKEFGKVMRITAADNFAVVDFETQKSQIDALEKKKKSIDGIEVCLERKTVKKPTSNNPPGIFTNGTRSHRKQPLKRKD [Y17A;K82A] | decreasing interaction strength |
